Experimental data reported in paper PMC5432305, “Fungal lectin MpL enables entry of protein drugs into cancer cells and their subcellular targeting” (Oncotarget, 2017).

Assays:
Papain [1] = molecular target: T1, Papain (UniProt P00784 134-345)
T1 chain: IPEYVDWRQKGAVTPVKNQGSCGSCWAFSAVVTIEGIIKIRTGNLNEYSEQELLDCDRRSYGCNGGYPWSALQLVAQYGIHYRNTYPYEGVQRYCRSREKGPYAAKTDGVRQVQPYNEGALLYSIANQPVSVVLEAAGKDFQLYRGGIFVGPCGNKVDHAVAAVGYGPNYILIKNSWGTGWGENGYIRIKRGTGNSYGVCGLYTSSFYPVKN

Papain [2] = molecular target: T2, Papain (UniProt P00784 134-345); experiment: enzyme inhibition kinetics (Ki, Henderson equation for tight binding competitive inhibitors); papain 2.6 nM, different concentrations of inhibitor proteins, 0.1 M MES, 5 mM DTT, 0.1 mM Z-Phe-Arg-AMC, pH 6.5, 25°C, fluorescence 370/460 nm; conditions: both partners purified
T2 construct: also called cysteine peptidase papain; cysteine protease papain; source: bought: Sigma
T2 sequence (looked up): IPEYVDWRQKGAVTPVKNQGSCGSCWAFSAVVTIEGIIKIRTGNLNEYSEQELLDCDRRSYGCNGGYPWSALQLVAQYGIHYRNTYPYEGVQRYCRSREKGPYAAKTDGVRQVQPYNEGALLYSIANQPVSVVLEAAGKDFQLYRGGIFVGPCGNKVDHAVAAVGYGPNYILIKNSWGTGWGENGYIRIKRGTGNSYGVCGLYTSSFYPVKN

B1: CysC-MpL fusion protein (cystatin C, (GGGGS)3 linker, MpL) (other)
chain: SSPGKPPRLVGGPMDASVEEEGVRRALDFAVGEYNKASNDMYHSRALQVVRARKQIVAGVNYFLDVELGRTTCTKTQPNLDNCPFHDQPHLKRKAFCSFQIYAVPWQGTMTLSKSTCQDAGGGGSGGGGSGGGGSMSTQVSSGQTYKITNVKAGTVIDLSGEDNKSIIGYPYHSGKNQQWTFNWTGKAWTLRSASSGSYLGIEGTPADGTRLVAVNDPFEWHIWRDEANENAFRIFVPFTNYNLDLSGYGDTTPGTPVQLWWTWEGLHQTWTIDRP
modifications: Cystatin C without its 26-residue signal peptide (stated for unlinked CysC, assumed for the fusion). (GGGGS)3 linker kept because it joins the two domains. Vector start Met not added; MpL Met1 may be absent in the fusion. Dimeric forms were observed; copies given per chain.
- Ki (Papain [1]): 41 nM

B2: Recombinant clitocypin (Clt) (natural protein, UniProt Q3Y9I6 1-152, looked up)
chain: MASLEDGTYRLRAVTTSNPDPGVGGEYATVEGARQPVKAEPSTPPFFERQIWQVTRNSDGQSTIKYQGLNAPFEYGFSYDQLEQNAPVIAGDPKEYILQLVPSTTDVYIIRAPIQRVGVDVEVGVQGNNLVYKFFPVDGSGGDRPAWRFTRE
notes: also called rClt; unlinked Clt; source: E. coli, purified as described [19]
- binding result (Papain [2]): binds
- Ki (Papain [1]): 60.8 nM

B3: Recombinant cystatin C (CysC) (natural protein, human, UniProt P01034 27-146, looked up)
chain: SSPGKPPRLVGGPMDASVEEEGVRRALDFAVGEYNKASNDMYHSRALQVVRARKQIVAGVNYFLDVELGRTTCTKTQPNLDNCPFHDQPHLKRKAFCSFQIYAVPWQGTMTLSKSTCQDA
notes: Human cystatin C without its signal peptide of 26 amino acids; It was cloned through NdeI and BamHI into pET11a, so an initiator methionine is likely; also called unlinked CysC
- binding result (Papain [2]): binds
- Ki (Papain [1]): 85.5 nM

B4: Clt-MpL fusion protein (clitocypin, (GGGGS)3 linker, MpL) (other)
chain: MASLEDGTYRLRAVTTSNPDPGVGGEYATVEGARQPVKAEPSTPPFFERQIWQVTRNSDGQSTIKYQGLNAPFEYGFSYDQLEQNAPVIAGDPKEYILQLVPSTTDVYIIRAPIQRVGVDVEVGVQGNNLVYKFFPVDGSGGDRPAWRFTREGGGGSGGGGSGGGGSMSTQVSSGQTYKITNVKAGTVIDLSGEDNKSIIGYPYHSGKNQQWTFNWTGKAWTLRSASSGSYLGIEGTPADGTRLVAVNDPFEWHIWRDEANENAFRIFVPFTNYNLDLSGYGDTTPGTPVQLWWTWEGLHQTWTIDRP
modifications: Clitocypin species taken from the candidate for the printed accession Q3Y9I6; MpL species is printed. (GGGGS)3 linker kept because it joins the two domains. MpL Met1 may be absent in the fusion. Dimeric forms were observed; copies given per chain.
- Ki (Papain [1]): 161 nM
